Experimental data: patent publication US20110217279

T1: variant peptide GLKRNRYLAFHFK
T1 sequence: GLKRNRYLAFHFK

T2: hBVR-derived substrate peptide GLKRNRYLSFHFK (hBVR aa222-234)
T2 sequence: GLKRNRYLSFHFKS

T3: variant peptide GLKRNRYLAFHFKSGSL
T3 sequence: GLKRNRYLAFHFKSGSL

B1: GST-hBVR fusion protein (protein)
chain: MNAEPERKFGVVVVGVGRAGSVRMRDLRNPHPSSAFLNLIGFVSRRELGSIDGVQQISLEDALSSQEVEVAYICSESSSHEDYIRQFLNAGKHVLVEYPMTLSLAAAQELWELAEQKGKVLHEEHVELLMEEFAFLKKEVVGKDLLKGSLLFTSDPLEEDRFGFPAFSGISRLTWLVSLFGELSLVSATLEERKEDQYMKMTVCLETEKKSPLSWIEEKGPGLKRNRYLSFHFKSGSLENVPNVGVNKNIFLKDQNIFVQKLLGQFSEKELAAEKKRILHCLGLAEEIQKYCCSRK

Tests used:
[1] = tested on: T1, variant peptide GLKRNRYLAFHFK
[2] = tested on: T2, hBVR-derived substrate peptide GLKRNRYLSFHFK (hBVR aa222-234)
[3] = tested on: T3, variant peptide GLKRNRYLAFHFKSGSL
[4] = target: active recombinant human PKC-δ kinase (as a GST fusion protein), Q05655
Sequence of active recombinant human PKC-δ kinase (as a GST fusion protein), Q05655 (Q05655 whole entry, looked up, stated change not applied, the tested form may be a part): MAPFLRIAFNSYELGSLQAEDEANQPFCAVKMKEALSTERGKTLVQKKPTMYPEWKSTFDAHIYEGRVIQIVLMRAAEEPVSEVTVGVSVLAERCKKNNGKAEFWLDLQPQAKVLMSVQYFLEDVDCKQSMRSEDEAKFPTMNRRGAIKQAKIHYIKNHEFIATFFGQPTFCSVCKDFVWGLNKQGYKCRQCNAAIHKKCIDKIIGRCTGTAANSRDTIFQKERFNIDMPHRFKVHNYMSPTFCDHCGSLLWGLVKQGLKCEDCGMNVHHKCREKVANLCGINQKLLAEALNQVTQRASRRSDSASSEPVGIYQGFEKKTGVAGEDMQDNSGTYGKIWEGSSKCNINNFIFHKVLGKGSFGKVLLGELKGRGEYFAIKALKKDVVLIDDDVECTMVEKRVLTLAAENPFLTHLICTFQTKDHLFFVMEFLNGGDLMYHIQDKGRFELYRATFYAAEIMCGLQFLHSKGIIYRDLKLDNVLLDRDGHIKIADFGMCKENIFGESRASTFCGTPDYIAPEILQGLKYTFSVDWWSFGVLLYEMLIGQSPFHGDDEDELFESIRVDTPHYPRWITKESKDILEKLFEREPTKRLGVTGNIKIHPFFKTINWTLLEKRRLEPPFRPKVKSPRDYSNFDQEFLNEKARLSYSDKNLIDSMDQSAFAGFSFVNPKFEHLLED

Molecule	phosphorylation of the peptide by PKC-δ (kinase assay, FIG. 4C) [1]	Km (phosphorylation of the peptide, in vitro kinase assay, Michaelis-Menten fit) [2]	phosphorylation of the peptide by PKC-δ (kinase assay, FIG. 4C) [3]	PKC-δ autophosphorylation, phosphorylation of hBVR and kinase activity toward MBP (in vitro kinase assay) [4]
active recombinant human PKC-δ kinase (as a GST fusion protein)	A variant peptide in which the target serine was replaced by alanine was, as expected, not a substrate for the kinase	Km of 1.59±0.58 µM	As with the shorter peptide, the replacement of serine with alanine markedly decreased phosphorylation of the peptide	
recombinant PKC-βII		Km 14.03 µM		
recombinant PKC-ζ		Km 6.89 µM		
B1				resulted in phosphorylation of hBVR concomitant with an enhanced PKC-δ autophosphorylation (FIG. 1A), and increased kinase activity toward the substrate, MBP (FIG. 1B)
